In PMC4703387, “Identification of the Calmodulin-Binding Domains of Fas Death Receptor” (PLoS ONE, 2016):

Molecular target: T1, calmodulin, calcium-bound (Ca2+/CaM) (UniProt P0DP23 1-149)
T1 construct: all experiments in the presence of calcium; Used unlabelled or 15N/13C-labelled; also called full-length Ca^2+/CaM
Experiment: NMR titration; 2D 1H-15N HSQC; unlabelled peptide titrated into 15N-labelled Ca2+/CaM, Ca2+/CaM-N or Ca2+/CaM-C (100-150 uM), 35°C, 50 mM Tris-d11 pH 7.0, 100 mM NaCl, 5 mM CaCl2; Kd by one-site fit of chemical shift changes
Conditions: both partners purified

B1: FasDD(224-238) peptide (peptide)
peptide: MTLSQVKGFVRKNGV
notes: also called FasDD(228–238); source: synthetic peptide, bought: Genscript (>95% purity)
binding result: binds
